Test results published in US20170176432A1 (OSAKA UNIVERSITY, published 2017).
Blank lines part the entries; values can stand above or below the binder they belong to.

Experiments:
[1] = molecular target: T1, human β2-glycoprotein I (β2-GPI) (human, UniProt P02749 20-345); test: flow cytometry of surface β2-GPI on 293T; HLA-DRB1*15:01
T1 construct: whole, on cells
T1 sequence (looked up): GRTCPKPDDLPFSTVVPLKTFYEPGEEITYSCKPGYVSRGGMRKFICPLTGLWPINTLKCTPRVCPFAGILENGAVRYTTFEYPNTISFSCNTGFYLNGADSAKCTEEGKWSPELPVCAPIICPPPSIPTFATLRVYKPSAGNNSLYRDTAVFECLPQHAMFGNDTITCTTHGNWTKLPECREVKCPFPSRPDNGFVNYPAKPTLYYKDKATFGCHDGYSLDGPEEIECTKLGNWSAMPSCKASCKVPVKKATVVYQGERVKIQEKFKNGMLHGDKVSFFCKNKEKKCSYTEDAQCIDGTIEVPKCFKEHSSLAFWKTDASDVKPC

human thyroglobulin (TG) [2] = molecular target: T2, human thyroglobulin (TG) (human, UniProt P01266 20-2768); test: flow cytometry of surface TG (anti-histidine antibody) on 293T; HLA-DRB1*15:01
T2 construct: whole, on cells; the tag is not described
T2 sequence (P01266 20-2768): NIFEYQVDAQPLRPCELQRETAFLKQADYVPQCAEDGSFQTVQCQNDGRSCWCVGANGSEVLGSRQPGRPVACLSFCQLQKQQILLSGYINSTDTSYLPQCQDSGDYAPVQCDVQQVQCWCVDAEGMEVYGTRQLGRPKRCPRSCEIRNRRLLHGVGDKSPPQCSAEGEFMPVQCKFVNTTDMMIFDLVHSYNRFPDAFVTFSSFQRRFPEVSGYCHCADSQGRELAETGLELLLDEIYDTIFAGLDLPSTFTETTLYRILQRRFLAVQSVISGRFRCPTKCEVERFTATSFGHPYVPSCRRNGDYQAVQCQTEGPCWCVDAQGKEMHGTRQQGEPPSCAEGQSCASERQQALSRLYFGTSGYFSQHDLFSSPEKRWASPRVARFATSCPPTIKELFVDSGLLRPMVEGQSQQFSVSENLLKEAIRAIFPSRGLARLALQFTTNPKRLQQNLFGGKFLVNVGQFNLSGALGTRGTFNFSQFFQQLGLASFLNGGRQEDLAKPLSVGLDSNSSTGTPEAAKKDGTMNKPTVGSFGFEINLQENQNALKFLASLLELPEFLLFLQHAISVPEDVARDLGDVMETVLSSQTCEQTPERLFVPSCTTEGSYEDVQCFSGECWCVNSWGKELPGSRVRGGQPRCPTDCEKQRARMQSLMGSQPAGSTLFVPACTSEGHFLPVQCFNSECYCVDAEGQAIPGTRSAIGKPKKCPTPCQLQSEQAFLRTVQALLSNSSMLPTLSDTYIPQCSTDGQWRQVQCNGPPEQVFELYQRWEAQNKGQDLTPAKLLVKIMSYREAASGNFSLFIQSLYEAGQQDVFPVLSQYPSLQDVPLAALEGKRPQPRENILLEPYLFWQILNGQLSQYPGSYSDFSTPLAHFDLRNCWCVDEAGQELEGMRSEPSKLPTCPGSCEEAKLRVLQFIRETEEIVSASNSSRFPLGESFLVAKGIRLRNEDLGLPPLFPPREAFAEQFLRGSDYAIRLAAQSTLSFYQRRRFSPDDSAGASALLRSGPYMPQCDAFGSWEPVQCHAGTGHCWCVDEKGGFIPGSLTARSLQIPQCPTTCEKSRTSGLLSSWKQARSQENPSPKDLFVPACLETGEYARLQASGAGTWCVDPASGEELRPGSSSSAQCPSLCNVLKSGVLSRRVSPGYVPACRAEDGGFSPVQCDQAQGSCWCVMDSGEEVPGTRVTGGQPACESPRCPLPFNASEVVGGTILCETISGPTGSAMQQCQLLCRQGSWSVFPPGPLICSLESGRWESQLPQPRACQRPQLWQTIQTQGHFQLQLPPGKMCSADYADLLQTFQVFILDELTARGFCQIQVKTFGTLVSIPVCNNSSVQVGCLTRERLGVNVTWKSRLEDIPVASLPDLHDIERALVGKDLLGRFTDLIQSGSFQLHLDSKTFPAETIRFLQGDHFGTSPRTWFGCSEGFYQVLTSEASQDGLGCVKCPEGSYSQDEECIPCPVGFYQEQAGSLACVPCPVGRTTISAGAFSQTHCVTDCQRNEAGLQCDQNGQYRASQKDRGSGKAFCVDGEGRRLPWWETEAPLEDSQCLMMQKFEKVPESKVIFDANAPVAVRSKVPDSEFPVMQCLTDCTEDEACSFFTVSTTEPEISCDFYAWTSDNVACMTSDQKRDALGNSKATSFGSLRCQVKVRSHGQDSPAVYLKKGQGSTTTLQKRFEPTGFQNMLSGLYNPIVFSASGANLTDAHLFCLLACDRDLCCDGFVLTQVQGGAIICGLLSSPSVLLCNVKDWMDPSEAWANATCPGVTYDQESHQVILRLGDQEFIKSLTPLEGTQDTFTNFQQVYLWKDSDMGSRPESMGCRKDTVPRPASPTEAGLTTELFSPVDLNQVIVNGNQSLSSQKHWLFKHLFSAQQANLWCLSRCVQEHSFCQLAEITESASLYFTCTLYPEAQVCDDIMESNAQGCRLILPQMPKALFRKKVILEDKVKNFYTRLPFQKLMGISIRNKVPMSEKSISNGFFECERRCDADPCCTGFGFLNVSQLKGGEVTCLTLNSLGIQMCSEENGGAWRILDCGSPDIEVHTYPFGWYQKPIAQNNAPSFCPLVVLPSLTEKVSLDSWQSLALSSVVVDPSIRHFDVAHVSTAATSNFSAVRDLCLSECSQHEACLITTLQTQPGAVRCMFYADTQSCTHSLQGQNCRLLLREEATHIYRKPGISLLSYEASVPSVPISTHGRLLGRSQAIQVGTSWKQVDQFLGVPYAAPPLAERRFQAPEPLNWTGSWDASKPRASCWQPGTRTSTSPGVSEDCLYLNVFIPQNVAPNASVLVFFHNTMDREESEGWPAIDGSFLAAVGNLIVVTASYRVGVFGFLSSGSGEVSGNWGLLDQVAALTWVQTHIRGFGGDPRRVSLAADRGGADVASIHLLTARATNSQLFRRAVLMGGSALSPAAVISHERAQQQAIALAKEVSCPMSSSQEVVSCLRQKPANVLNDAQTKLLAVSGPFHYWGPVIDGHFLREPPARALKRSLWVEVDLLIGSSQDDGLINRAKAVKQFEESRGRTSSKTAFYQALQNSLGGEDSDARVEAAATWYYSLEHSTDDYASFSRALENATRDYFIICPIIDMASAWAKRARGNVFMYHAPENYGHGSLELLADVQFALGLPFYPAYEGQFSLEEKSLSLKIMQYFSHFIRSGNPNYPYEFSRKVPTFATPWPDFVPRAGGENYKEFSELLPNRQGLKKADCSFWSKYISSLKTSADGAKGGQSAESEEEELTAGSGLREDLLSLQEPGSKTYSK

[3] = molecular target: T1, human β2-glycoprotein I (β2-GPI); test: flow cytometry of surface β2-GPI on 293T; HLA-DRB1*14:06
human thyroglobulin (TG) [4] = molecular target: T2, human thyroglobulin (TG); test: flow cytometry of surface TG (anti-histidine antibody) on 293T; HLA-DRB4*01:03
[5] = molecular target: T1, human β2-glycoprotein I (β2-GPI); test: flow cytometry of surface β2-GPI on 293T; HLA-DRB4*01:03
[6] = molecular target: T1, human β2-glycoprotein I (β2-GPI); test: flow cytometry of surface β2-GPI on 293T; HLA-DRB3*02:02

binding result [1]: binds
binding result (human thyroglobulin (TG) [2]): binds
B1: HLA-DR (HLA-DRA*01:01/HLA-DRB1*15:01) (other, human)
MHC II alpha: not shown
MHC II beta: not shown
notes: whole, on cells; also called HLA-DR15

binding result [3]: binds
B2: HLA-DR (HLA-DRA*01:01/HLA-DRB1*14:06) (other, human)
MHC II alpha: not shown
MHC II beta: not shown
notes: whole, on cells

binding result (human thyroglobulin (TG) [4]): binds
binding result [5]: binds
B3: HLA-DR (HLA-DRA*01:01/HLA-DRB4*01:03) (other, human)
MHC II alpha: not shown
MHC II beta: not shown
notes: whole, on cells; also called HLA-DR53

binding result [6]: binds
B4: HLA-DR (HLA-DRA*01:01/HLA-DRB3*02:02) (other, human)
MHC II alpha: not shown
MHC II beta: not shown
notes: whole, on cells
